These results are taken from patent US20240325490A1 (RESEARCH AND BUSINESS FOUNDATION SUNGKYUNKWAN UNIVERSITY, published 2024).

Assay [1] deals with T1, P62 (endogenous, mouse brain) (mouse, UniProt Q64337 2-442, limits assumed).
T1 construct: Endogenous protein in mouse brain tissue
Briefly: immunoprecipitation / immunoblot from AAV2-injected mouse brains after MCAO (FIGS. 6F and 6G). Background: A western blot detects proteins with antibodies after separation by electrophoresis.

Assay [2] deals with T1, P62 (endogenous, mouse brain). In words: protein ligation assay (PLA) in situ, mouse brain CA1 after MCAO.

B1: GFP-EBP1-K376A expressed from AAV2 in mouse brain (other, UniProt Q9UQ80 1-394, looked up)
chain: MSGEDEQQEQTIAEDLVVTKYKMGGDIANRVLRSLVEASSSGVSVLSLCEKGDAMIMEETGKIFKKEKEMKKGIAFPTSISVNNCVCHFSPLKSDQDYILKEGDLVKIDLGVHVDGFIANVAHTFVVDVAQGTQVTGRKADVIKAAHLCAEAALRLVKPGNQNTQVTEAWNKVAHSFNCTPIEGMLSHQLKQHVIDGEKTIIQNPTDQQKKDHEKAEFEVHEVYAVDVLVSSGEGKAKDAGQRTTIYKRDPSKQYGLKMKTSRAFFSEVERRFDAMPFTLRAFEDEKKARMGVVECAKHELLQPFNVLYEKEGEFVAQFKFTVLLMPNGPMRITSGPFEPDLYKSEMEVQDAELKALLQSSASRKTQKKKKKKASATAENATSGETLEENEAGD
notes: also called AAV2-GFP-EBP1-K376A; AAV2-K376A; not shown: GFP tag
Turning to B1, the binding result in assay [1] is listed as “no binding”.

B2: EBP1 (endogenous, mouse brain) (other, UniProt P50580 2-394, looked up)
chain: SGEDEQQEQTIAEDLVVTKYKMGGDIANRVLRSLVEASSSGVSVLSLCEKGDAMIMEETGKIFKKEKEMKKGIAFPTSISVNNCVCHFSPLKSDQDYILKEGDLVKIDLGVHVDGFIANVAHTFVIGVAQGTQVTGRKADVIKAAHLCAEAALRLVKPGNQNTQVTEAWNKVAHSFNCTPIEGMLSHQLKQHVIDGEKTIIQNPTDQQKKDHEKAEFEVHEVYAVDVLVSSGEGKAKDAGQRTTIYKRDPSKQYGLKMKTSRAFFSEVERRFDAMPFTLRAFEDEKKARMGVVECAKHELLQPFNVLYEKEGEFVAQFKFTVLLMPNGPMRITSGPFEPDLYKSEMEVQDAELKALLQSSASRKTQKKKKKKASKTVENATSGETLEENGAGD
notes: Endogenous protein detected in situ by PLA; also called mouse Ebp1
In the case of B2, in assay [2], the binding result is recorded as “binds”.
